The target of the data set is T1, GST-TBX1 T-box (Mus musculus, UniProt P70323 90-303).
T1 sequence: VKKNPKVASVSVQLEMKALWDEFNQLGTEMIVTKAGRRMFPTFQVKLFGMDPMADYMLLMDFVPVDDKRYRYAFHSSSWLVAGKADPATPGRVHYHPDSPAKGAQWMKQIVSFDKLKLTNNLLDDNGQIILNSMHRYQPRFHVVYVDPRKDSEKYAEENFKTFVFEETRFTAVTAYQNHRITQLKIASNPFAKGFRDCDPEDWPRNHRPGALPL
Description: EMSA; 6 h exposure; EMSA, 12.5 ul, GST-TBX1 5-25 ug, HEPES/MgCl2/KCl/DTT/EDTA/glycerol buffer (stock concentrations only, pH not given), 1 ug/ul poly(dI-dC), Ficoll, room temperature, 10 min + 10 min, 5% acrylamide gel. Particulars: protein: recombinant; tags: N-terminal GST (pGEX4t3); chain copies: 2; label: 5'-32P. (In general: In EMSA bound probe runs differently from free probe, usually more slowly.)

B1: Brachyury palindrome probe (Fig S1) (dsDNA)
DNA 1: CTAGATTTCACACCTAGGTGTGAAATCTAG
DNA 2: CTAGATTTCACACCTAGGTGTGAAATCTAG
As for B1, the binding result is “binds”.

These data come from PMC4010391, “Mammalian TBX1 Preferentially Binds and Regulates Downstream Targets Via a Tandem T-site Repeat”.
